Measured values published in patent US10793871B2, “Nucleic acid molecule encoding glei protein variant with increased phytic acid sensitivity and use thereof” (University-Industry Foundation, Yonsei University, priority 2015, dated 2020).

T1: Dbp5 ATPase (Saccharomyces cerevisiae, UniProt P20449+Q12315)
T1 sequence (P20449 1-482): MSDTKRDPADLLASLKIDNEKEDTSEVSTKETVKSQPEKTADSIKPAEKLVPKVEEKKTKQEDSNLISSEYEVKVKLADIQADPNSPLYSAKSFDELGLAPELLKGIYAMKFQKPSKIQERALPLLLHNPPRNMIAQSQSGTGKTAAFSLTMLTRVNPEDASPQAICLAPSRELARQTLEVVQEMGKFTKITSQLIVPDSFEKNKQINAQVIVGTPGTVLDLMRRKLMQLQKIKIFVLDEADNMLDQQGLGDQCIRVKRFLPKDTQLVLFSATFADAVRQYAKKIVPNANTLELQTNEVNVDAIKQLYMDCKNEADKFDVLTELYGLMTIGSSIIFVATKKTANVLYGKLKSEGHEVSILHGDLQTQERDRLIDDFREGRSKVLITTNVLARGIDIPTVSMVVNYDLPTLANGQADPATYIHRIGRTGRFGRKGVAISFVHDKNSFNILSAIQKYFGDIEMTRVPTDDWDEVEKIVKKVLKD
T1 sequence (Q12315 1-538): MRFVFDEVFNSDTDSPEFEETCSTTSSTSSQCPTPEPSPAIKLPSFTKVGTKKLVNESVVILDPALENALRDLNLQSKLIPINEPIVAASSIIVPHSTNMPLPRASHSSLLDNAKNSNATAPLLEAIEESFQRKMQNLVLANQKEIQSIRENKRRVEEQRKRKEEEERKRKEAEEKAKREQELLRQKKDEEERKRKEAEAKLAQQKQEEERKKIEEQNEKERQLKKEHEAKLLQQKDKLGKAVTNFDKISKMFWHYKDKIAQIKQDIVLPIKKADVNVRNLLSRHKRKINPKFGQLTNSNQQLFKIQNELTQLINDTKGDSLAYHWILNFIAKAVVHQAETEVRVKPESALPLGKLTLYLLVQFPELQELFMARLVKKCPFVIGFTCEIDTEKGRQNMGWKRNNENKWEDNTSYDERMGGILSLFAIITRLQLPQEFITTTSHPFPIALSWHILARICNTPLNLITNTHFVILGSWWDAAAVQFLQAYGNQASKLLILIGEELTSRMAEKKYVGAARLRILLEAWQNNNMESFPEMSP

T2: LOS4 ATPase (Arabidopsis thaliana, UniProt Q0WPZ7)
T2 construct: LOS4 was cloned into a pET-29a vector for His fusion; made in house; host or cells: Escherichia coli Rosetta (DE3) for LOS4-His; BL21 (DE3) for MBP-Gle1C
T2 sequence (Q0WPZ7 244-611): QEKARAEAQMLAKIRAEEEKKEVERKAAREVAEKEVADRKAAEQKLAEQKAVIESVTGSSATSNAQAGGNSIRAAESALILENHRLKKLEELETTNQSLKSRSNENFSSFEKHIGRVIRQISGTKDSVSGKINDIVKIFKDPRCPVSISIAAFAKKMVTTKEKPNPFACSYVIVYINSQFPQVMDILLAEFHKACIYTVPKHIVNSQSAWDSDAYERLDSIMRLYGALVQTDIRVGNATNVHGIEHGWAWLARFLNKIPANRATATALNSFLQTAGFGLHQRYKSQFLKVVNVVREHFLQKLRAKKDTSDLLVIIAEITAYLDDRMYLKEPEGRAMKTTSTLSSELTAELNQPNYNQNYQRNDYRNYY

B1: MBP-Gle1C: MBP fusion protein of the carboxyl-terminal domain of Gle1 (amino acid residues 244-611), wild type (protein)
chain: T2 sequence (Q0WPZ7 244-611)

Columns and labels:
[1] = test system: LOS4 ATPase; experiment: Steady-state ATPase assay of LOS4-His; format: biochemical, Arabidopsis thaliana
Procedure: (§1) A steady-state ATPase assay was performed as described by Alcázar-Román et al. (Inositol hexakisphosphate and Gle1 activate the DEAD-box protein Dbp5 for nuclear mRNA export. Nat. Cell Biol. 8: 711-716, 2006) with slight modifications. The ATPase assay was performed with a LOS4-His protein in a 96-well plate using a buffer containing 20 mM HEPES (pH 7.5), 150 mM NaCl, 3 mM MgCl2, 1 mM DTT, 2 mM ATP, 6 mM phosphoenolpyruvate, 1.2 mM NADH, 1 mg/ml BSA and 2% (v/v) pyruvate kinase/lactate dihydrogenase (Sigma-Aldrich) in a total volume of 100 μl. Polyadenylic acid was added at 50 μg/ml or different concentrations as described above. Absorbance at 340 nm was measured using a VersaMax absorbance microplate reader (Molecular Devices), and the data were analyzed using SoftMax Pro software (Molecular Devices).
(§2) Gle1 and Gle1C (aa residues 244-611) were cloned into a pMAL C2X vector (New England Biolabs) for MBP fusion, LOS4 was cloned into a pET-29a vector for His fusion. MBP-Gle1 and MBP-Gle1C proteins were expressed in a BL21 (DE3) strain, and LOS4-His proteins were expressed in a Rosseta (DE3) strain of Escherichia coli. Cells were grown at 37° C. to an A600 of 0.4, shifted to 16° C., and induced by 0.25 mM IPTG for 16 hours. The MBP- and His-fusion proteins were purified following the manufacturer's introductions using MBP Excellose (Bioprogen) and His60 Ni Superflow™ resin (Clontech), respectively.

[2] = target: T1, Dbp5 ATPase; conditions: yeast; InsP6 100 nM added to Gle1 and RNA; cited from earlier work
[3] = target: T2, LOS4 ATPase; experiment: Steady-state ATPase assay of LOS4-His; format: biochemical; conditions: MBP-Gle1C alone (2 μM), without LOS4
Procedure: as §1, §2

Row | Molecule | additional increase in LOS4 activity by InsP6 ([1]; InsP6 10 μM added to Gle1 and RNA (FIG. 5B)) [%] | increase of LOS4 ATPase activity ([1]; LOS4-His 1 μM, ATP 2 mM, RNA 50 μg/ml, MBP-Gle1 2 μM plus 10 μM InsP6) [fold] | additional increase in Dbp5 ATPase activity [2] | intrinsic ATPase activity [3] | LOS4-His ATPase activity on addition of increasing amounts of protein ([1]; 0-4 μM MBP-Gle1C, 1 μM LOS4-His, 2 mM ATP, RNA (FIG. 4C)) | stimulation of LOS4 ATPase activity in the absence of InsP6 ([1]; 1 μM LOS4-His, 2 mM ATP, RNA, 2 μM MBP-Gle1C or variant, no InsP6) | increase in the overall catalytic rate of LOS4 ([1]; LOS4-His 1 μM with MBP-Gle1C 2 μM vs LOS4-His alone) | apparent kcat of LOS4-His ([1]; LOS4-His (1 μM) with MBP-Gle1C (2 μM), 0-2 mM ATP) [s⁻¹] | maximal increase in LOS4 ATPase activity with RNA ([1]; LOS4-His:MBP-Gle1C 1:2, addition of RNA (polyadenylic acid) at different concentrations) [fold] | InsP6 concentration at which LOS4-stimulating activity increases above basal ([1]; with RNA, InsP6 0-100 μM) [µM] | InsP6 concentration giving maximum LOS4-stimulating activity ([1]; with RNA, InsP6 0-100 μM) [µM] | InsP6 concentrations at which only basal LOS4-stimulating activity is maintained ([1]; with RNA, InsP6 0-100 μM) [nM]
1 | O=P(O)(O)O[C@H]1[C@H](OP(=O)(O)O)[C@@H](OP(=O)(O)O)[C@H](OP(=O)(O)O)[C@@H](OP(=O)(O)O)[C@H]1OP(=O)(O)O [InsP6, Myo-inositol-1,2,3,4,5,6-hexakisphosphate, reference compound] | 30 | > 4 | 3- to 4 fold | – | – | – | – | – | – | – | – | –
2 | B1 | – | – | – | did not show intrinsic ATPase activity | activated LOS4-His ATPase activity in a concentration-dependent manner | activated LOS4 ATPase activity to similar degrees | approximately two-fold | 0.565 | ~3 | 1 | 10 | 1 to 100
